Assay results taken from patent US20090238821A1 (Eli Lilly, published 2009).

How the values were obtained:
[1] = target: T1, Amyloid-beta 1-42 (UniProt P05067 672-713); experiment: BIAcore, essentially as in Example 15
T1 construct: domain: Amyloid-beta 1-42; Numbers 1-42 count on the Aβ peptide, not on the APP entry; also called Aβ42; Aβ1-42
Procedure: Antibody affinity (KD=Kd/Ka) was determined using a BIAcore biosensor 2000 and data analyzed with BIAevaluation (v. 3.1) software. A capture antibody (rabbit anti-mouse) was coupled via free amine groups to carboxyl groups on flow cell 2 of a biosensor chip (CM5) using N-ethyl-N-dimethylaminopropyl carbodiimide and N-hydroxysuccinimide (EDC/NHS). A non-specific rabbit IgG was coupled to flow cell 1 as a background control. Monoclonal antibodies were captured to yield 300 resonance units (RU). […] To regenerate the chip, bound anti-Aβ antibody was eluted from the chip using a wash with glycine-HCl (pH 2). A control injection containing no amyloid-beta served as a control for baseline subtraction.

[2] = target: T2, β-amyloid peptide (1-42) conjugated to BSA (UniProt P05067 672-713, C-terminal Cys43 coupled to maleimide-activated bovine serum albumin); experiment: competitive ELISA on Aβ1-42-BSA, competitor of biotinylated Mu266 (0.3 µg/ml), first set
T2 construct: domain: Aβ1-42; Coated on ELISA plates at 10 µg/mL; the carrier BSA is not written as a chain; also called Aβ1-42-BSA conjugate; Aβ1-42-Cys-BSA conjugate
Procedure: (§1) The Aβ₁₋₄₂-BSA conjugate was prepared by dissolving 7.5 mg of Aβ₁₋₄₂-Cys₄₃(C-terminal cysteine Aβ₁₋₄₂, AnaSpec) in 500 μL of dimethylsulfoxide, and then immediately adding 1,500 μL of distilled water. Two (2) milligrams of maleimide-activated bovine serum albumin (Pierce) was dissolved in 200 μL of distilled water. The two solutions were combined, thoroughly mixed, and allowed to stand at room temperature for two (2) hours. A gel chromatography column was used to separate unreacted peptide from Aβ₁₋₄₂-Cys-BSA conjugate.
(§2) After washing the wells with phosphate buffered saline (PBS) containing 0.1% Tween 20 (Washing Buffer) using an ELISA plate washer, the wells were blocked by adding 300 μL of SuperBlock reagent (Pierce) per well. After 30 minutes of blocking, the wells were washed Washing Buffer and excess liquid was removed.
(§3) As a background control, 100 μl of ELISA Buffer was added. The ELISA plate was incubated at room temperature for 90 min. After washing the wells with Washing Buffer, 100 μl of 1 μg/ml HRP-conjugated streptavidin (Cat # 21124, Pierce) was added to each well. […] Absorbance was read at 415 nm. The absorbances were plotted against the log of the competitor concentration, curves were fit to the data points (using Prism) and the IC50 was determined for each antibody using methods well-known in the art.

[3] = target: T2, β-amyloid peptide (1-42) conjugated to …; experiment: competitive ELISA on Aβ1-42-BSA, competitor of biotinylated Mu266 (0.3 µg/ml), second set
Procedure: as §1, §2, §3

Kd [1]: 4 pM
IC50 [2]: 7.5 µg/mL
IC50 [3]: 4 µg/mL
B1: humanized 266 antibody (antibody, human IgG1, kappa, V domains shown)
VH: EVQLVESGGGLVQPGGSLRLSCAASGFTFSRYSMSWVRQAPGKGLELVAQINSVGNSTYYPDTVKGRFTISRDNAKNTLYLQMNSLRAEDTAVYYCASGDYWGQGTLVTVSS
VL: DVVMTQSPLSLPVTLGQPASISCRSSQSLIYSDGNAYLHWFLQKPGQSPRLLIYKVSNRFSGVPDRFSGSGSGTDFTLKISRVEAEDVGVYYCSQSTHVPWTFGQGTKVEIKR
notes: Mature antibody expressed from pVk-Hu266 and pVg1-Hu266 in Sp2/0 cells (clone 1D9), purified on protein A; human kappa and gamma 1 constant regions; also called Hu266
